The record followed here is paper doi:10.1101/2020.11.24.393629 (bioRxiv, 2020).

For experiment [1], the target named is T1, Recombinant RBD protein of SARS-CoV-2 with His tag (SARS-CoV-2, UniProt P0DTC2). Put plainly: ELISA.
Another experiment has as its target SARS-CoV RBD (SARS-CoV, GenBank NC_004718.3, UniProt P59594). As to the kind of experiment: BLI.
Experiment [2] deals with SARS-CoV-2 S on 293T cells expressing SARS-CoV-2 S (SARS-CoV-2-S cells) (SARS-CoV-2, UniProt P0DTC2). Put plainly: flow cytometry on cells.
The target in experiment [3] is T1, Recombinant RBD protein of SARS-CoV-2 …. Put plainly: flow cytometry on cells. A general note: Flow cytometry measures light scatter and fluorescence of single cells or particles in a stream.

B1: HB27, humanized anti-SARS-CoV-2 monoclonal antibody (IgG) (antibody, V domains shown)
VH: VKLVESGGGLVKPGGSLRLSCAASGFTFTNYGMSWVRQAPGKRLEWVAEISSGGSYTYYPDTVTGRFTISRDNAKNTLYLQMNSLRAEDTAVYYCARFRYGGGGTVDYWGQGTLVTVSS
VL: IVLTQSPTLSLSPGERATLSCRASESVDNYGISFMNWFQQKPGQAPRLLIYAASNQGSGIPSRFSGSGSGTDFSLTISSLEPEDFAVYFCQQSKEVPRIFGQGTKVEIL
For the molecule B1, the EC50 in experiment [1] was 0.5 nM; in experiment [2], 5 to 50 nM; in experiment [3] it was 5 to 50 nM. The binding result with SARS-CoV RBD is recorded as “no binding”.

One may read the EC50 as the midpoint of the concentration-response curve.
